{"source": "patent US10941200B2", "about": "“TREM2 cleavage modulators and uses thereof” (Deutsches Zentrum Für Neurodegenerative Erkrankungen EV, priority 2016, dated 2021)", "molecules": {"B1": {"name": "clone 14D8: rat monoclonal antibody against TREM2 cleavage site peptide; heavy chain variable SEQ ID NO: 24, light chain variable SEQ ID NO: 34 (antibody, V domains shown)", "VH": "EVKLLESGGGLVQPGGSMRLSCAASGFTFTDFYMNWIRQPAGKAPEWLGLIRNKANGYTTVYNPSVKGRFTISRDNTQNMLYLQMNTLRGEDTATYYCARIGINNGGSLDYWGQGVMVTVSS", "VL": "DILINQSPASLTVSTGEKVTMSCRSSQSLLYSEKNQDYLAWYQQKPGQFPKLLIYGASYRHTGVPDRFTGSGSGTDFTLTISSVQAEDLADYYCEQTYSYPYTFGAGTKLELK", "modifications": "Clone 14D8 variable region of the heavy chain; Clone 14D8 variable region of the light chain"}}, "assay_type_in_all_cases": "cell-based", "key": {"[1]": {"molecular_target": "T1, human TREM2 (Homo sapiens, UniProt Q9NZC2)", "T1 construct": "HEK293 Flp-In cells either expressing human full-length TREM2 or empty vector; expressed in transfected cells", "T1 sequence (Q9NZC2 19-230)": "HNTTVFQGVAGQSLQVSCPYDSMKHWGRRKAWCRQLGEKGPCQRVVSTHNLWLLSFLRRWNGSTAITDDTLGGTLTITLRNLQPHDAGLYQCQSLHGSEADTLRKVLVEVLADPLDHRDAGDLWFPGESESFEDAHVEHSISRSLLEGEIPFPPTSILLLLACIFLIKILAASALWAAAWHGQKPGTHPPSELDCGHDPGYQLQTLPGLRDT", "assay": "sTREM2 ELISA of conditioned media from HEK293 Flp-In cells stably overexpressing wt TREM2 (ectodomain shedding)", "method": "(§1) 1*10^6-1.5*10^6 cells were seeded in the 6-well format. 24 hours later fresh medium was added to the cells. Antibody clones as generated by Dr. Feederle (Helmholtz Center Munich, Core Facility Monoclonal Antibody Development) were added simultaneously, i.e. for overnight treatment (about 24 hrs), at a final concentration of 50 μg/mL. On the next day, conditioned media and cells were collected and processed as described under “Preparation of conditioned media, cell lysates, and immunoblotting”.\n(§2) ADAM10 inhibitor G1254023X (5 μM final concentration) and a control monoclonal antibody, which is specific for the C terminus of human TREM2, were used as positive and negative controls, respectively.\nFor quantitation of levels of sTREM2 in cell culture supernatants, an ELISA for human sTREM2 was established using the Meso Scale Discovery SECTOR Imager 2400. Streptavidin-coated 96-well plates were blocked overnight at 4° C. in 0.5% bovine serum albumin (BSA) and 0.05% Tween 20 in PBS (pH 7.4) (blocking buffer). For detection of human sTREM2, plates were shaken for 1 hour at room temperature with biotinylated polyclonal goat anti-human TREM2 capture antibody (0.25 mg/ml; R&D Systems) diluted in blocking buffer. Plates were washed subsequently four times with 0.05% Tween 20 in PBS (washing buffer) and incubated for 2 hours at room temperature with samples diluted 1:4 in 0.25% BSA and 0.05% Tween 20 in PBS (pH 7.4) (assay buffer) supplemented with protease inhibitors (Sigma). Recombinant human TREM2 protein (Holzel Diagnostika) was diluted in assay buffer in a two-fold serial dilution and used for the standard curve (concentration range, 4000 to […]). Plates were washed three times for 5 min with washing buffer before incubation for 1 hour at room temperature with mouse monoclonal anti-TREM2 antibody (1 mg/ml; Santa Cruz Biotechnology; B-3) diluted in blocking buffer. After three additional washing steps, plates were incubated with a SULFO-TAG-labeled anti-mouse secondary antibody (1:1000; Meso Scale Discovery) and incubated for 1 hour in the dark. Last, plates were washed three times with washing buffer followed by two washing steps in PBS and developed by adding Meso Scale Discovery Read buffer. The light emission at 620 nm after electrochemical stimulation was measured using the Meso Scale Discovery SECTOR Imager 2400 reader. To quantify the levels of sTREM2 secreted from HEK293 Flp-In cells, conditioned media from biological replicates were analyzed in duplicates. The sTREM2 standard curves were generated using the MasterPlex ReaderFit software (MiraiBio Group, Hitachi Solutions America) through a five-parameter logistic fit. Levels of sTREM2 were subsequently normalized to levels of immature TREM2 as quantified from Western Blots."}, "[2]": {"molecular_target": "T1, human TREM2", "assay": "Immunoblotting of mature TREM2 in membrane fractions of HEK cells stably overexpressing wt TREM2", "settings": "antibody 50 μg/mL, 24 hrs", "method": "(§3) HEK293 Flp-In cells stably overexpressing TREM2 or TREM2-DAP12 cDNA constructs were seeded at a density of 1.5×10^5/cm^2 and medium changed 48 h post seeding. Conditioned medium was collected after 18-20 h, immediately cooled down on ice, centrifuged at 13,000 rpm for 20 min at 4° C. and supernatants frozen at −20° C. until analysis. Supernatants were directly subjected to standard 15% SDS-PAGE. To prepare membrane fractions, cells were washed twice with ice-cold PBS, resuspended in ice-cold hypotonic buffer (0.01 M Tris, pH 7; 1 mM EDTA; 1 mM EGTA), freshly supplemented with protease inhibitor (Sigma) and incubated on ice for 30 min. After snap freezing in liquid\nnitrogen and thawing, the disrupted cells were centrifuged at 13,000 rpm for 45 min at 4° C.\nThe resulting pellet was resuspended in STE lysis buffer (150 mM NaCl, 50 mM Tris-HCl,\npH 7.6, 2 mM EDTA, 1% Triton-X 100), incubated for 20 min on ice and clarified by centrifugation at 13,000 rpm for 30 min at 4° C. Protein concentrations were measured using the BCA method, equal amounts of protein were mixed with Laemmli sample buffer, supplemented with beta mercaptoethanol, separated by SDS-PAGE and transferred onto polyvinylidene difluoride membranes (Hybond P; Amersham Biosciences, Aylesbury, UK). Bound antibodies were visualized by corresponding HRP-conjugated secondary antibodies\n(§4) using enhanced chemiluminescence technique (Pierce). Quantification of immunoblots was performed on a LAS-4000 image reader and analyzed using the Multi-Gauge V3.0 software (both Fujifilm Life Science).\nas §1, §2"}, "[3]": {"molecular_target": "T1, human TREM2", "assay": "Anti-HA immunoblotting of soluble TREM2 (sTREM2) from conditioned media of HEK cells stably overexpressing wt TREM2", "settings": "antibody 50 μg/mL, 24 hrs; FIG. 7A top blot", "method": "as §3, §4\n1*10^6-1.5*10^6 cells were seeded in the 6-well format. 24 hours later fresh medium was added to the cells. Antibody clones as generated by Dr. Feederle (Helmholtz Center Munich, Core Facility Monoclonal Antibody Development) were added simultaneously, i.e. for overnight treatment (about 24 hrs), at a final concentration of 50 μg/mL. On the next day, conditioned media and cells were collected and processed as described under “Preparation of conditioned media, cell lysates, and immunoblotting”. […]"}}, "note": "Entries after “also recorded” stand apart in the source; their conditions may differ."}
{"molecule": "B1", "values": [{"measurement": "sTREM2 levels (ELISA), result in words", "setting": "[1]; antibody 50 μg/mL, 24 hrs, normalized to immature TREM2, FIG. 7B", "value": "decreases in sTREM2 levels comparable to the ADAM10 inhibitor G1254023X; also recorded: decreased levels of sTREM2"}, {"measurement": "activity to inhibit TREM2 cleavage (summary statement)", "setting": "[1]; ranking among the antibody clones of the Examples", "value": "very high activity to inhibit TREM2 cleavage"}, {"measurement": "increase in levels of mature TREM2 in the membrane fraction (immunoblot), result in words", "setting": "[2]; FIG. 7A bottom blot", "value": "comparable to if not higher than the increase as seen with the ADAM10 inhibitor G1254023X"}, {"measurement": "levels of mature TREM2 in the membrane fraction (quantified immunoblots), result in words", "setting": "[2]; normalized to immature TREM2, FIG. 7C", "value": "increases in levels of mature TREM2 comparable to or even higher than the ADAM10 inhibitor G1254023X; also recorded: increases in levels of mature TREM2 in the membrane fraction"}, {"measurement": "extent of ectodomain cleavage (sTREM2 immunoblot), result in words", "setting": "[3]", "value": "strongly reduce the extent of ectodomain cleavage"}]}
